One experiment addresses T1, human GPR7 (Homo sapiens, UniProt P48145).
T1 construct: expressed in transfected cells; host or cells: CHO-K1 clone WTA11 (mitochondrial apoaequorin + Galpha16)
T1 sequence (P48145 1-328): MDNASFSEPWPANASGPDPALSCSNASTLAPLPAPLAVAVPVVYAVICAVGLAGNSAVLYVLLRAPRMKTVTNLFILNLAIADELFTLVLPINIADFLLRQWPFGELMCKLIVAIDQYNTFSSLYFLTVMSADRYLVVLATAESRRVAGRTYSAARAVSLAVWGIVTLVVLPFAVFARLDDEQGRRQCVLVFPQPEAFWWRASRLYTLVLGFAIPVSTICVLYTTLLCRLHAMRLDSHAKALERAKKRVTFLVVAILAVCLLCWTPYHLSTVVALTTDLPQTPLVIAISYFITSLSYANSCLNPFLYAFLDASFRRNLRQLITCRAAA
The experiment is described as follows: Aequorin-based functional assay, WTA11 cells expressing GPR7. Type of experiment: cell-based. Conditions: in words. On the procedure:
CHO—K1 cells (ATCC CRL-9618 (Bethesda, Md., USA)) were previously transfected with a plasmid encoding mitochondrial apoaequorin and Gα16. A clone obtained by limit dilution, called WTA11, was grown in Nutrient Mixture HAM's F12 medium supplemented with 10% fetal calf serum, 250 μg/ml zeocin, 100 units/ml penicillin and 100 μg/ml streptomycin. A bicistronic plasmid encoding the human GPR7 was transfected into WTA11 CHO—K1 cells, using Fugene 6 (Roche Diagnostics, Mannheim, Germany). Individual clones were selected two days after transfection with 400 μg/ml neomycin and GPR7-positive clones were confirmed by northern blotting, RT-PCR and sequencing.
Functional responses were analysed by recording the luminescence of aequorin following the addition of the ligand. In brief, cells were collected from plates with PBS containing 5 mM EDTA, pelleted, and resuspended at 10^7 cells/ml in DMEM-F12 medium and incubated with 5 μM coelenterainze H (Molecular Porbes) for 4 h at room temperature. Cells were then washed in DMEM-F12 medium and resuspended at a concentration of 2×10^6 cells/ml. Cells where then mixed with the ligand, and the light emission was recorded over 60 s using a Microlumat™ luminometer (Perkin Elmer). Results are expressed as relative light units (RLU) (FIG. 5).
(§1) In the experiments described in this section, the aequorin assay measured functional responses by recording the luminescence of aequorin in GPR7- and GPR8-expressing cells following addition of (potential) agonists, as previously described (Kotani, M. et al.). In brief, cells were collected from plates with PBS containing 5 mM EDTA, pelleted, resuspended at 5×10^6 cells/ml in DMEM-F12 medium containing 0.1% BSA, incubated with 5 μM coelenterazine H (Molecular Probes, Eugene, Oreg.) for 4 h at room temperature, and diluted in DMEM-F12 medium at a concentration of 5×10^5 cells/ml. Cells where then mixed with the ligands, and the light emission was recorded over 30 s using a Microlumat™ luminometer (Perkin Elmer, Norwalk, Conn.).

Another experiment deals with T2, human GPR8 (Homo sapiens, UniProt P48146).
T2 construct: expressed in transfected cells; host or cells: CHO-K1 clone WTA11 (apoaequorin + Galpha16)
T2 sequence (P48146 whole entry): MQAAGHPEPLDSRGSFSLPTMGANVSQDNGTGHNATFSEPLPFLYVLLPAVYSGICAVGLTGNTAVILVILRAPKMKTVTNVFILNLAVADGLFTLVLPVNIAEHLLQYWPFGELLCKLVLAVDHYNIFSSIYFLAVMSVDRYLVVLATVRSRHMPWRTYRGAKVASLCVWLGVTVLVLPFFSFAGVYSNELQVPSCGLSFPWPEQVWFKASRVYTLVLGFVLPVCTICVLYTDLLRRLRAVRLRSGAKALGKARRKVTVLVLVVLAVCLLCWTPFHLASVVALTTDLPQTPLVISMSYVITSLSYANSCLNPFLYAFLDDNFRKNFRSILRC
In words: Aequorin-based functional assay, WTA11 cells expressing GPR8. The conditions noted are these: in words. The class given is cell-based. On the procedure: as §1

For the substance “SPYA (PYAR; UniProt Q8NG41 51-54, looked up, fragment) [pro-L7 [51-54], human peptide derived from the L7 precursor]”, the “activity in aequorin-based functional assay on GPR7” value (shortened to “activity … on GPR7”) with human GPR7 was “inactive”. Also, in the experiment with human GPR8, the “activity in aequorin-based functional assay on GPR8” value (from here on “activity … on GPR8”) is “inactive”.

In the case of “SPYLW (UniProt Q8N729 58-62, looked up, fragment) [pro-L8 [58-62], human peptide derived from the L8 precursor]”, in the experiment with human GPR7, the “activity … on GPR7” value is “inactive”. In addition, the “activity … on GPR8” value with human GPR8 was “inactive”.

On to “WYKPAAGHSSYSVGRAAGLL [pro-L7 [25-44], human peptide derived from the L7 precursor]”, for which the “activity … on GPR7” value with human GPR7 was “active”. Moreover, the “activity … on GPR8” value with human GPR8 is given as “active”.

These data come from patent US20030232756A1, “Ligands for G protein coupled receptor GPR7 and GPR8 and uses thereof” (Euroscreen, S.A., priority 2002, published 2003).
